Data: the nanobody polyreactivity screen of Harvey et al. (2022)

Test: yeast display, Sf9 membrane polyspecificity reagent, FACS + sequencing; frameworks hold sequencing errors
Outline: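 Sorting gates, low and high (top ~1%), were placed on anti-HA fluorescence to track expression and on streptavidin fluorescence to track reagent binding. A clone's polyreactivity label is taken from the gate it came out of. The reagent was 10% biotinylated, detergent-solubilized Sf9 membrane, applied for 1 hour at 4 °C to galactose-induced yeast display cells.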

| Sequence | polyreactivity (PSR sort gate) |
| --- | --- |
| QVQLVESGGGLVQAGGSLRLSCAASGRIFYYNVMGWYRQAPGKERELVASISYSSTRTYYADSVKGRFTISRDNAKNTVYLQMNSLKPEDTAVYYCAVDTYAYRGVSYWSERTYYYWGQGTQVTVSS | low polyreactivity |
| QVQLVESGGGLVQAGGSLRLSCAAYGFIFSYYTMGWYRQAPGKERELVAAISYSGGSTYYADSVKGRFTISRDNAKNNVYLQMNSLKPEDTAVYYCTAVAAATYDYWGQGTQVTVSS | high polyreactivity |
| QVQLVESGGGLVQAGGSLRLSCAASGRIFAHYAMGWYRQAPGKERELVADIRQSGGRTYYADSVKGRFTISRDNAKNTVYLKMNSLKPEDTAVYFCATDYGSWGDYSGKYDYWGQGTQVTVSS | low polyreactivity |
| QVQLVESGGGLVQAGGSLRLSCAASGSTFHGYTIGWSRQAPGKERELVAAISSRGTSTYYADSVKGRFTISRDNAMNTVYLQMNSLKTEDTAVYYCATRGWDKYWGQGTQVTVSS | high polyreactivity |
| QVQLVESGGGLVQAGGSLRLSCAASGRTFILYAMGWYRQAPWKERELVAAITRRGGRTYYADSVKGRFTISRDNAKNTVYLQMNSLKREDTAVYYCAADQYYYTQPSDMDYWGQGTQVTVSS | high polyreactivity |
| QVQLVESGGGLVQAGGSLRLSCAASGSTLYGYAMGWYRQAPGKVRELVAAISSRAVRTYYADSVKGRFTISRDNAKNTVYLHMNSLKPEDTAVYYCAAKRSYAYEYWGQGTQVTVSS | high polyreactivity |
| QVQLVESGGGLVQAGGSHRLSCAASGSIFRWYAMGWYRQAPGKERELVAAITSGGGTNYADSVKGRFTISRDNAKNTVYIQMNCLKPEDTAVYYCNAAAWLRWGYRGGFWRYDYWGQGTQVTVSS | high polyreactivity |
| QVQLVESGGGLVQAGGSLRLSRAASGRTFYFNAMGWYRQAPGKERELVAGISGDGSTNYADSVKGRFTISRDNAKNTVYLQMNSLKPEDTAVYYCAKTLGSQNYDFDYWGQGTQVTVSS | low polyreactivity |
| QVQLVESGGGLVQAGCSLRLSCAASGFIFGRYTMGWYRQAPGKERELVAAISGSDVSTYYADSVKGRFTISRDNAKNTVYLQMNSLKPEDTAVYYCNAGPWWYLHEYDYWGQGTQVTVSS | low polyreactivity |
| QVHLVESGGGLVQAGGSLRLSCAASGSTFPVNAMGWYRQAPGKERELVAAIRSSTGRTYYADSVKGRFTISRDNAKNSVYLQMNSLKPEDTAVYNFAAEGDYYDFISPPLDYWGQGTQVTVSS | low polyreactivity |
| QDQLVESGGGLVQAGGSLRLSCAASGFNFRYYAMGWYRQAPGKERELVAAISSGGRTSYADSVKGRFTISRDNAKNTVYLQMNSLKPEDTAVYYCAADRWRGLFYYGNDYWGQGTQVTVSS | high polyreactivity |
| QVQLVESGGGLVQAGGSLRLSCAASGRIFVSYAMGWYRQAPGKERELVATINIGSDTYYADSVKGRFTISRDNAKNTVYLQMNSLKPEDTAVYYCAKDYYEGDSYPYPGYEYWGQGTQVTVSS | low polyreactivity |
| QVQLVESGGGLVQAGGSLRLSCAASGRTFRNAMGWYRQAPGKEREFVATITWSGGSTYYADSVKGRFTISRDNAKNTVYLQMNSLKPEDTAVYYCAAEGRLWDWQRYDYWGQGTQVTVSS | low polyreactivity |
| QDQLVESGAGLVQAGGSLRLSCAASGFNFYRYAMGWYREAPGKERELVATISVRGGTYYADSVKGRFTISRDNAKNTVYLQMNSLKPEDTAVYYCAARVHLWGDTLKFVRVGYWGQGTQVTVSS | low polyreactivity |
| QVQLVESGGGLVQAGGSLRLSCAASGSIFPGYAMGWYRQAPGKERELVATITWSGGSTYYADSVKGRFTISRDNAKNTVYLQMISLKTEDTAVYYCNADSNCYYQWNYYGLYDYWGQGTQVTVSS | low polyreactivity |
| QVQLVESGGGLVQAGGTLPLSCAASGRTFNGNAMGWYRQAPGKERELVATINYSGGSTYYADSVKGRFTISRDNAKNTVYLQMNSLKPEDNAVYYCAAGGYPWYLRRGGFAGYDYWGQGTQLTVSS | low polyreactivity |
| QVQLVASGGGLVQAGGSLRISSAASGGIFPQYAMGWYRQAPGKERELVAAISRRGGSTYYADSVKGRFTISRDNAKNTVYLQMNSLKPEDTAVYFCNAGGSDYGVSNKYNSWGQGTQVTVSS | high polyreactivity |
